Results published in patent US20180140742A1.

Experiments:
[1] = target: oriented collagen tube (Porcine Skin Collagen type I) (porcine); test: depletion assay: tube immersed in fusion protein solution in phosphate buffer; bound = added minus amount left in the supernatant
[2] = target: oriented collagen tube (Porcine Skin Collagen type I) (porcine); test: depletion assay: tube immersed in fusion protein solution in phosphate buffer; bound = added minus amount left in the supernatant; told of the other added amounts

bFGF-PKD-CBD fusion protein showed a binding amount (when 10 µg added) [1] of 9 µg and a protein binding rate [2] of 90%.
